Positions of bridges follow the written chain, without caps; N, C: chain ends. Non-standard residues stand in square brackets, D forms with d. Phe(F5) = N[C@@H](Cc1c(F)c(F)c(F)c(F)c1F)C(=O)O; NMeF = CN[C@@H](Cc1ccccc1)C(=O)O; NMeNle = CCCC[C@H](NC)C(=O)O; Sar = CNCC(=O)O
What was measured:
[1] = biological target: hPDL1(19-239)-TVMV-His (human) (UniProt Q9NZQ7); experiment: HTRF competition of PD-1-Ig binding to PD-L1-His; cluster 3 = IC50 0.03045 to >10 uM or not done
[2] = biological target: human PD-L1 (human) (UniProt Q9NZQ7); experiment: cell binding assay (CBA), PE-labeled PD-1-Ig on cells over-expressing human PD-L1; cluster 3 = IC50 0.07431 to >10 uM or not done
Sequence of human PD-L1 (human) (Q9NZQ7 19-290): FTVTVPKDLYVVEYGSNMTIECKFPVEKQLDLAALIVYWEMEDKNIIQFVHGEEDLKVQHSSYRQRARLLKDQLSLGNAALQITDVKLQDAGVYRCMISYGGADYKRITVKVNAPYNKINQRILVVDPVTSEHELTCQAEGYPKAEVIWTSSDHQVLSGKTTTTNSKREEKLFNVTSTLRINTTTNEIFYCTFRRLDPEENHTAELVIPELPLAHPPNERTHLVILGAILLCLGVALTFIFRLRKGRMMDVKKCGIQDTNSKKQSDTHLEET

Sequence of hPDL1(19-239)-TVMV-His (human) (Q9NZQ7 other isoform, or with tags, fused parts or gaps limits assumed): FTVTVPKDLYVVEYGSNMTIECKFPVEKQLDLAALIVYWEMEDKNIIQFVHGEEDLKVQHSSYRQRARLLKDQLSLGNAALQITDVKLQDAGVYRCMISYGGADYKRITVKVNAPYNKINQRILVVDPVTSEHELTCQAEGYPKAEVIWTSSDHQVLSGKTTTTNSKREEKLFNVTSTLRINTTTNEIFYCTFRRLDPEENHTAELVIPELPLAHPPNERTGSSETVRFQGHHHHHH

B1: Example 3078 (peptide)
peptide: {CH2CO}-[Phe(F5)][NMeF][NMeNle][Sar]DV[NMeF]Y[Sar]WYLCG-NH2
modifications: thioether N-13
SMILES: CCCC[C@H]1C(=O)N(C)CC(=O)N[C@@H](CC(=O)O)C(=O)N[C@@H](C(C)C)C(=O)N(C)[C@@H](Cc2ccccc2)C(=O)N[C@@H](Cc2ccc(O)cc2)C(=O)N(C)CC(=O)N[C@@H](Cc2c[nH]c3ccccc23)C(=O)N[C@@H](Cc2ccc(O)cc2)C(=O)N[C@@H](CC(C)C)C(=O)N[C@H](C(=O)NCC(N)=O)CSCC(=O)N[C@@H](Cc2c(F)c(F)c(F)c(F)c2F)C(=O)N(C)[C@@H](Cc2ccccc2)C(=O)N1C
[1]
  HTRF IC50 cluster: 3 cluster
[2]
  CBA IC50 cluster: 3 cluster

— US20140294898A1
